Measured values from patent US20250340662A1.
Where a chain is given by its changes, count along the chain named. One block for each binder: values may come before it.

How the values were obtained:
[1] = biological target: CD44v6 on cultured cancer cells (BHT-101, ACT-1, A431) (human) (UniProt P16070); assay: live BHT-101 cells; apparent KD
[2] = biological target: CD44v6 on cultured cancer cells (BHT-101, ACT-1, A431) (human) (UniProt P16070); assay: LigandTracer, 125I-IgG4 on BHT-101 cells
[3] = biological target: CD44v6 on cultured cancer cells (BHT-101, ACT-1, A431) (human) (UniProt P16070); assay: LigandTracer, 177Lu-antibody on A431 cells
[4] = biological target: Human CD44v6 iso4-Fc (human) (UniProt P16070); assay: SPR SCK, antibody immobilised, CD44v6-Fc injected; apparent KD
[5] = biological target: Human CD44v6 iso4-Fc (human) (UniProt P16070); assay: SPR SCK, antibody immobilised, CD44v6-Fc injected
[6] = biological target: Cynomolgus v6-peptide (cynomolgus); assay: SPR SCK, antibody immobilised, peptide injected
Human v6-peptide (human) = biological target: T1, Human v6-peptide (human); assay: SPR SCK, antibody immobilised, peptide injected
T1 sequence (peptide, N-terminal biotin): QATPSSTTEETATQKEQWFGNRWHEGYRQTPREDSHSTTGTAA

Sequence of Cynomolgus v6-peptide (cynomolgus) (peptide, as listed by the source): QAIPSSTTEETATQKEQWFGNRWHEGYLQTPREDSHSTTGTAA
Sequence of Human CD44v6 iso4-Fc (human) (P16070 other isoform, or with tags, fused parts or gaps limits assumed): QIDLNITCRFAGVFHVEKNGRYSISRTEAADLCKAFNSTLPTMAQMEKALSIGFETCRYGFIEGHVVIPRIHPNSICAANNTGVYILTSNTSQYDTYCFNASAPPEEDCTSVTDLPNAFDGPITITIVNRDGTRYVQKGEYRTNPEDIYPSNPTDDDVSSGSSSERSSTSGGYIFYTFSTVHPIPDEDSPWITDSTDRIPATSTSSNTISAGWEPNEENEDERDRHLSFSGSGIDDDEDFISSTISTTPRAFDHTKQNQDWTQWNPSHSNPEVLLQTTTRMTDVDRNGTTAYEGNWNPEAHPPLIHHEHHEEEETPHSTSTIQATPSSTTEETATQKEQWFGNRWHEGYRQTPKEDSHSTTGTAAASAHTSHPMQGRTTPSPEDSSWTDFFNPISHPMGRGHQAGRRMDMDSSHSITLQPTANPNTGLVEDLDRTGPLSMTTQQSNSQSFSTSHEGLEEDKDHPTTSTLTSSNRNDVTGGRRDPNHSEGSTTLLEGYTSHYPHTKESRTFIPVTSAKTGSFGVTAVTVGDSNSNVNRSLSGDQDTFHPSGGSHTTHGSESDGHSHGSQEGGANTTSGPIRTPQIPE

B2: AL-MN114-145 hIgG4 (antibody, V domains shown)
VH: EVQLLESGGGLVQPGGSLRLSCAASGFSFSSFAMSWVRQAPGKGLEWVSAISAGGSSTFYADSVKGRFTISRDNSKNTLYLQMNSLRAEDTAVYYCARHYYSDSDYRSSAAMDYWGQGTLVTVSS
VL: DIQMTQSPSSLSASVGDRVTITCRASQSIGSYLNWYQQKPGKAPKLLIYSASNLQSGVPSRFSGSGSGTDFTLTISSLQPEDFATYYCQQDLYLLTFGQGTKLEIK
Kd [1]: < 0.2 nM

B3: AL-MN114-19 hIgG4 (antibody, V domains shown)
VH: B2 VH with S30G, F32Y, A53G
VL: B2 VL with G30S, N53S
Kd [1]: < 0.2 nM
Kd [2]: 0.04 nM

B5: AL-MN114-126 hIgG4 (antibody, V domains shown)
VH: B2 VH with S28T, F32Y, F59Y
VL: B2 VL with G30S, S50A, N53S
Kd [1]: < 0.2 nM
Kd [2]: 0.04 nM

B6: AL-MN114-429 hIgG4 (antibody, V domains shown)
VH: B2 VH with F59Y
VL: B2 VL with G30S, S50A, N53S
Kd [1]: < 0.2 nM
Kd [2]: 0.06 nM

B7: AL-MN114-465 hIgG4 (antibody, V domains shown)
VH: B2 VH with S30G, F32Y
VL: B2 VL with G30S, S50T, N53S
Kd [1]: < 0.2 nM
Kd [3]: 0.03 nM
Kd [2]: 0.03 nM

B8: AL-MN114-18 hIgG4 (antibody, V domains shown)
VH: B2 VH with S30G, A53G, F59Y
VL: B2 VL with S28T, G30A, S50T
Kd [1]: < 0.2 nM
Kd [2]: 0.02 nM

B9: AL-MN114-71 hIgG4 (antibody, V domains shown)
VH: B2 VH with S30R, A53G
VL: B2 VL with G30S, S50A, N53T
Kd [1]: < 0.2 nM
Kd [2]: 0.02 nM

B11: AL-MN114-93 hIgG4 (antibody, V domains shown)
VH: B2 VH with S30G, F59Y
VL: B2 VL with G30S, S50A, N53S
Kd [1]: < 0.2 nM

B12: AL-MN114-460 hIgG4 (antibody, V domains shown)
VH: B2 VH with S30G, F32Y, F59Y
VL: B2 VL with N53S
Kd [1]: < 0.2 nM

B14: AL-MN114-452 hIgG4 (antibody, V domains shown)
VH: B2 VH with F32Y
VL: B2 VL with N53S
Kd [1]: < 0.2 nM

B16: AL-MN114-42 hIgG4 (antibody, V domains shown)
VH: B2 VH with S28T, F32Y, A53G, S56Y, F59Y
VL: B2 VL with S28T, N53I
Kd [1]: < 0.2 nM
Kd [2]: 0.04 nM

B18: AL-MN114-79 hIgG4 (antibody, V domains shown)
VH: B2 VH with S28T, S30R, A50T
VL: B2 VL with G30A, S31N, S50A, N53T
Kd [1]: < 0.2 nM
Kd [2]: 0.03 nM

B20: AL-MN114-444 hIgG4 (antibody, V domains shown)
VH: B2 VH with S28T, S30R, A53G
VL: B2 VL with N53S
Kd [1]: < 0.2 nM
Kd [2]: 0.02 nM

B21: BIWA4 IgG1 LALA (antibody, from another filing, V domains shown)
VH: EVQLVESGGGLVKPGGSLRLSCAASGFTFSSYDMSWVRQAPGKGLEWVSTISSGGSYTYYLDSIKGRFTISRDNAKNSLYLQMNSLRAEDTAVYYCARQGLDYWGRGTLVTVSS
VL: EIVLTQSPATLSLSPGERATLSCSASSSINYIYWYQQKPGQAPRLLIYLTSNLASGVPARFSGSGSGTDFTLTISSLEPEDFAVYYCLQWSSNPLTFGGGTKVEIKR
Kd [4]: 0.72 nM
koff [5]: 0.00027 s⁻¹
kon [5]: 370000 M⁻¹ s⁻¹
Kd [6]: 12 nM
koff [6]: 0.0035 s⁻¹
kon [6]: 280000 M⁻¹ s⁻¹
Kd (Human v6-peptide (human)): 15 nM
koff (Human v6-peptide (human)): 0.0035 s⁻¹
kon (Human v6-peptide (human)): 240000 M⁻¹ s⁻¹

B22: BIWA4 IgG1 LALA IAHA (antibody, from another filing, V domains shown)
VH: B21 VH
VL: B21 VL
Kd [4]: 14 nM
koff [5]: 0.00033 s⁻¹
kon [5]: 24000 M⁻¹ s⁻¹
Kd [6]: 44 nM
koff [6]: 0.0036 s⁻¹
kon [6]: 83000 M⁻¹ s⁻¹
Kd (Human v6-peptide (human)): 73 nM
koff (Human v6-peptide (human)): 0.0027 s⁻¹
kon (Human v6-peptide (human)): 36000 M⁻¹ s⁻¹

Further lines, results first:

Kd [1]: < 0.2 nM
Kd [2]: 0.02 nM
B1: AL-MN114-435 hIgG4 (antibody, V domains shown)
VH: B2 VH with S28T, F32Y
VL: B2 VL with G30S, S50A, N53S

Kd [1]: < 0.2 nM
Kd [2]: 0.1 nM
B4: AL-MN114-423 hIgG4 (antibody, V domains shown)
VH: B2 VH with S28T, F32Y, S56T, F59Y
VL: B2 VL with G30S, S50A, N53S

Kd [1]: < 0.2 nM
B10: AL-MN114-23 hIgG4 (antibody, V domains shown)
VH: B2 VH with S30R, S31N, A53G, S56G
VL: B2 VL with S28N, G30S, N53I

Kd [1]: < 0.2 nM
B13: AL-MN114-14 hIgG4 (antibody, V domains shown)
VH: B2 VH with S28T, F32Y, A53G, G54S, S56R
VL: B2 VL with G30S, S50A, N53S

Kd [1]: < 0.2 nM
B15: AL-MN114-132 hIgG4 (antibody, V domains shown)
VH: B2 VH with S28T, F32Y, A53G, F59Y
VL: B2 VL with G30S, S50A, N53S

Kd [1]: < 0.2 nM
B17: AL-MN114-439 hIgG4 (antibody, V domains shown)
VH: B2 VH with S30G
VL: B2 VL with G30S, S50A, N53S

Kd [1]: < 0.2 nM
Kd [2]: 0.03 nM
B19: AL-MN114-451 hIgG4 (antibody, V domains shown)
VH: B2 VH with S28T, F32Y, S56Y, F59Y
VL: B2 VL with S50T, N53T
